By stoichiometry N is commonly meant the number of molecules, sites or subunits per partner or assembly. In general, Kd refers to a measure of binding affinity in units of concentration. Lower therefore signals a tighter complex.

The results in this text go back to article doi:10.1101/2021.10.01.462734.

Several values for one entry are separate records, joined by “and”; a condition that tells them apart may be missing. Identical values can stand only once.

The target of experiment [1] is GFP-mGR GR^dim/Y545A double mutant (mouse). The experiment can be described thus: number and brightness.
The next experiment deals with GFP-mGR Y545A (mouse). The experiment can be described thus: number and brightness.
Experiment [2] concerns the target ancGR2-LBD (ancient variant of the glucocorticoid receptor ligand-binding domain), wild type, DEX-bound. Description: SPR.
Experiment [3] has the same target. Description: cross-linking.
Experiment [4] addresses ancGR2-LBD Y545C mutant, DEX-bound. The experiment can be described thus: SPR. Background: Surface plasmon resonance follows binding to a sensor surface in real time, without labels.
Experiment [5] shares this target. Description: cross-linking.

Regarding “GFP-mGR GR^dim/Y545A double mutant (natural protein)”, in experiment [1], the stoichiometry N was 3.
On to GFP-mGR Y545A (natural protein), for which the stoichiometry N with GFP-mGR Y545A (mouse) was determined as 4.
Turning to “ancGR2-LBD (ancient variant of the glucocorticoid receptor ligand-binding domain), wild type, DEX-bound (domain or fragment)”, in experiment [2], the Kd was found to be 15.3 µM; the kD1 (multisite model, first of two independent binding sites) was found to be 2.2 µM; the kD2 (multisite model, second of two independent binding sites) amounted to 27.9 µM. For the same substance, the stoichiometry N in experiment [3] was 2 and 4.
The substance “ancGR2-LBD Y545C mutant, DEX-bound (domain or fragment)” registered a kD1 (multisite model, first binding site) in experiment [4] of 0.8 µM. Moreover, the stoichiometry N in experiment [5] was 2.
